Here are results for 1 molecule from US20170304355A1, “COMPOSITIONS AND METHODS OF USE THEREOF” (priority 2014, published 2017).

The subject of the assay is IL-8. The assay can be described thus: LPS stimulated IL-8 ELISA in U937 macrophages, PAAG and lactoferrin. As to conditions: 100 ng/ml lactoferrin pretreatment 1 hour, LPS stimulation; at 24 hours; FIG. 31. It counts as cell-based, human. A general note: An ELISA detects its analyte on a solid surface through an enzyme-linked reagent.

B1: lactoferrin: Lactoferrin, comparator pretreatment at 100 ng/ml (protein, UniProt P02788 20-710, looked up)
Lactotransferrin: GRRRSVQWCAVSQPEATKCFQWQRNMRKVRGPPVSCIKRDSPIQCIQAIAENRADAVTLDGGFIYEAGLAPYKLRPVAAEVYGTERQPRTHYYAVAVVKKGGSFQLNELQGLKSCHTGLRRTAGWNVPIGTLRPFLNWTGPPEPIEAAVARFFSASCVPGADKGQFPNLCRLCAGTGENKCAFSSQEPYFSYSGAFKCLRDGAGDVAFIRESTVFEDLSDEAERDEYELLCPDNTRKPVDKFKDCHLARVPSHAVVARSVNGKEDAIWNLLRQAQEKFGKDKSPKFQLFGSPSGQKDLLFKDSAIGFSRVPPRIDSGLYLGSGYFTAIQNLRKSEEEVAARRARVVWCAVGEQELRKCNQWSGLSEGSVTCSSASTTEDCIALVLKGEADAMSLDGGYVYTAGKCGLVPVLAENYKSQQSSDPDPNCVDRPVEGYLAVAVVRRSDTSLTWNSVKGKKSCHTAVDRTAGWNIPMGLLFNQTGSCKFDEYFSQSCAPGSDPRSNLCALCIGDEQGENKCVPNSNERYYGYTGAFRCLAENAGDVAFVKDVTVLQNTDGNNNEAWAKDLKLADFALLCLDGKRKPVTEARSCHLAMAPNHAVVSRMDKVERLKQVLLHQQAKFGRNGSDCPDKFCLFQSETKNLLFNDNTECLARLHGKTTYEKYLGPQYVAGITNLKKCSTSPLLEACEFLRK
Turning to B1, the IL-8 secretion suppression result was “IL-8 secretion suppression”.
